What was measured:
Experiment in all cases: ELISA on coated his-tagged Fc receptor, anti-human-Fc HRP detection
[1] = target: his-tagged FcRIIIa protein (R&D Systems) (UniProt P08637 17-208)
[2] = target: his-tagged FcγRI protein (R&D Systems) (UniProt P12314 16-288)
[3] = target: T1, his-tagged FcγRIIb protein (R&D Systems) (UniProt P31994 46-217)
T1 sequence (looked up): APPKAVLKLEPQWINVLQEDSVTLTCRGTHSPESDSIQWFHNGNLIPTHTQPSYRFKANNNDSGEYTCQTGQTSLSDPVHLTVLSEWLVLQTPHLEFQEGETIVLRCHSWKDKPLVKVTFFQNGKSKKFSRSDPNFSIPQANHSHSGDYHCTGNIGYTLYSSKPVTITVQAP

[4] = target: T2, his-tagged FcγRIIa protein (R&D Systems) (UniProt P12318 36-218)
T2 sequence (looked up): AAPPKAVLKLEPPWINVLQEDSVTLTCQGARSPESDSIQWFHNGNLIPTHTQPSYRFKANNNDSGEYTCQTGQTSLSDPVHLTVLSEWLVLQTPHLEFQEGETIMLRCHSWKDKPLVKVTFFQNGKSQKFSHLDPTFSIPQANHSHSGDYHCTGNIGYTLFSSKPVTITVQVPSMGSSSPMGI

Measured: binding result

Chain of his-tagged FcRIIIa protein (R&D Systems) (P08637 17-208 limits assumed): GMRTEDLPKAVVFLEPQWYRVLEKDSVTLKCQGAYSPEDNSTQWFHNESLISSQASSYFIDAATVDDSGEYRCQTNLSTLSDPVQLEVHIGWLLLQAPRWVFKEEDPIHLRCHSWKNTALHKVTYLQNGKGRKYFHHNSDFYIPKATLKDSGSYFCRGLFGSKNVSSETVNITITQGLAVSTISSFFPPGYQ
Chain of his-tagged FcγRI protein (R&D Systems) (P12314 16-288 limits assumed): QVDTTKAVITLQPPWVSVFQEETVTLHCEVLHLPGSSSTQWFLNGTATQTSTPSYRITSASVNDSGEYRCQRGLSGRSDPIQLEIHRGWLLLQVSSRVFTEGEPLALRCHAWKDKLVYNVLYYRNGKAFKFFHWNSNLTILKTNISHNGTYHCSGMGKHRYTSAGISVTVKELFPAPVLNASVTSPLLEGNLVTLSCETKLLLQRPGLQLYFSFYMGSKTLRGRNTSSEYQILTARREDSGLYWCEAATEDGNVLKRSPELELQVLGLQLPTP

B1: ACE2-M1-FcKO (Fc fusion)
chain: STIEEQAKYFLDKFNHEAEDLFYQSSLASWNYNTNITEENVQNMNNAGDKWSAFLKEQSTYAQMYPLQEIQNLTVKLQLQALQQNGSSVLSEDKSKRLNTILNTMSTIYSTGKVCNPDNPQECLLLEPGLNEIMANSLDYNERLWAWESWRSEVGKQLRPLYEEYVVLKNEMARANHYEDYGDYWRGDYEVNGVDGYDYSRGQLIEDVEHTFEEIKPLYEHLHAYVRAKLMNAYPSYISPIGCLPAHLLGDMWGRFWTNLYSLTVPFGQKPNIDVTDAMVDQAWDAQRIFKEAEKFFVSVGLPNMTQGFWEYSMLTDPGNVQKAVCHPTAWDLGKGDFRILMCTKVTMDDFLTAHREMGRIQYDMAYAAQPFLLRNGANEGFHEAVGEIMSLSAATPKHLKSIGLLSPDFQEDNETEINFLLKQALTIVGTLPFTYMLEKWRWMVFKGEIPKDQWMKKWWEMKREIVGVVEPVPHDETYCDPASLFHVSNDYSFIRYYTRTLYQFQFQEALCQAAKHEGPLHKCDISNSTEAGQKLFNMLRLGKSEPWTLALENVVGAKNMNVRPLLNYFEPLFTWLKDQNKNSFVGWSTDWSPYADQSIKVRISLKSALGDKAYEWNDNEMYLFRSSVAYAMRQYFLKVKNQMILFGEEDVRVANLKPRISFNFFVTAPKNVSDIIPRTEVEKAIRMSRSRINDAFRLNDNSLEFLGIQPTLGPPNQPPVSSGGGGSGGGGSGGGGSEPKSSDKTHTCPPCPAPPVAGPSVFLFPPKPKDTLMISRTPEVTCVVVGVSHEDPEVKFNWYVDGVEVHNAKTKPREEQYNSTYRVVSVLTVLHQDWLNGKEYKCKVSNKQLPSPIEKTISKAKGQPGQPREPQVYTLPPSRDELTKNQVSLTCLVKGFYPSDIAVEWESNGQPENNYKTTPPVLDSDGSFFLYSKLTVDKSRWQQGNVFSCSVMHEALHNHYTQKSLSLSPGK
notes: also called M1 version
no binding: all assays above
